The test deals with botulinum neurotoxin serotype A light chain (Clostridium botulinum, UniProt P0DPI1 1-420). Kind of test: HPLC-based protease inhibition assay (Dixon plots). The following applies: both partners purified.

Non-standard residues stand in square brackets, D forms with d. No end group written: not given here. Aib = CC(C)(N)C(=O)O

Sequence of botulinum neurotoxin serotype A light chain (P0DPI1 1-420): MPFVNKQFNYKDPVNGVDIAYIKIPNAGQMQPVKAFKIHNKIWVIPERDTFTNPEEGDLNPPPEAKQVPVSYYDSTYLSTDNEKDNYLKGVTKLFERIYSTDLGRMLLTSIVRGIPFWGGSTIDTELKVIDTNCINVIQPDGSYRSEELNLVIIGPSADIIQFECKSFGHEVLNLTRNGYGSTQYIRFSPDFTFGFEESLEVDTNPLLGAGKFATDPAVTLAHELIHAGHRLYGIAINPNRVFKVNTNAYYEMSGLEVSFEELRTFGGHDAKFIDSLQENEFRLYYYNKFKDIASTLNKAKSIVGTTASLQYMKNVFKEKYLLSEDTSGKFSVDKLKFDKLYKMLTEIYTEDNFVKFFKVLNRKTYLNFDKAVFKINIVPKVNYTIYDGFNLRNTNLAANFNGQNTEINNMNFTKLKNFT

B1: JTH-NB72-39 (peptide)
chain: RRF[Aib]AML-NH2
On to B1, for which the Ki was 638 nM.

B2: JTH-NB72-38 (peptide)
chain: RRW[Aib]AML-NH2
modifications: not fully specified
Turning to B2, the affinity corresponds to a Ki of 990 nM.
